# Assay results: patent US20260274981A1 (VIB VZW, published 2026)
# T1: recombinant cynomolgus TfR (90253-C07H, Sino Biological), biotinylated (cynomolgus monkey, UniProt Q5RDH6 89-760 (Pongo abelii entry), biotinylated with EZ-Link NHS-PEG4-Biotinylation Kit)
# T1 construct: Bought protein; also called immobilized recombinant cynomolgus TfR
# T1 chain: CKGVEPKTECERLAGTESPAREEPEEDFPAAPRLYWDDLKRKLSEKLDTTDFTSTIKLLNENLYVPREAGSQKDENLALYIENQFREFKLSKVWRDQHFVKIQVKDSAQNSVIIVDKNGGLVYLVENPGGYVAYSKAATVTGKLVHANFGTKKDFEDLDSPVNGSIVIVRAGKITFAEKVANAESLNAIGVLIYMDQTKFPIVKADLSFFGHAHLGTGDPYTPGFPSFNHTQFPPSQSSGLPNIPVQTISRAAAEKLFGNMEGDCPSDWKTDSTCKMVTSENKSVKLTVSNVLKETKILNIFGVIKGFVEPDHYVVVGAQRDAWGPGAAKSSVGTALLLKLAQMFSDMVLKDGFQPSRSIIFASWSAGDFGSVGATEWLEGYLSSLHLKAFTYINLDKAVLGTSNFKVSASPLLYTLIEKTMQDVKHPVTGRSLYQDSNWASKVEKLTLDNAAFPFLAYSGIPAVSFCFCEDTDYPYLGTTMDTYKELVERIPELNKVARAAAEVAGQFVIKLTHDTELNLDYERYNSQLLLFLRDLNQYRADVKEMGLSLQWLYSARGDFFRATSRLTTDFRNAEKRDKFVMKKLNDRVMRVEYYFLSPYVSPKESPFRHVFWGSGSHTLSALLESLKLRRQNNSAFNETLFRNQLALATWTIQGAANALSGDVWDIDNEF
# Target: T1, recombinant cynomolgus TfR (90253-C07H, …)
# Assay: SPR (Biacore T200), biotinylated cynomolgus TfR captured on SA chip, VHH as analyte, single cycle kinetics
# From the text: Phage libraries generated after 4 biweekly immunizations of two different camelids, underwent two rounds of pannings on CHO cell lines overexpressing either cynomolgus TfR in the first round or human TfR in the second round. Output libraries were screened with flow cytometry to find binders to human TfR overexpressing cells (FIG. 1A). […] Binding kinetics to recombinant human and cynomolgus TfR were further characterized with Surface Plasmon Resonance (SPR).
# Surface Plasmon Resonance (SPR) was used to measure the interaction between VHHs and human or cynomolgus TfR receptor. Human TfR (2474-TR, R&D Systems) and cynomolgus TfR (90253-C07H, Sino Biological) were biotinylated with the EZ-Link NHS-PEG4-Biotinylation Kit (ThermoFischer Scientific) according to the manufacturer instructions. The binding experiments were performed at 25° C. on a Biacore T200 instrument (Cytiva, Uppsala, Sweden) in HBS-EP+ buffer (10 mM HEPES, 150 mM NaCl, 3 mM EDTA and 0.05% v/v Surfactant P20). Biotinylated human TfR and cynomolgus TfR were captured on a SA sensor chip (Cytiva) at a density of around 250 RU. Increasing concentrations of VHHs were sequentially injected in one single cycle at a flow rate of 30 μl/min. The dissociation was monitored for 20 min. […] A reference flow was used as a control for non-specific binding and refractive index changes. Several buffer blanks were used for double referencing. […]
row,Kd [nM],Binder
1,104,"BBB00533 (VHH, Lead VHH expressed in E. coli TG1 and purified by IMAC; detected with anti-FLAG antibody in flow cytometry; also called BBB00533 VHH; not shown: C-terminal 3xFlag/6xHis tag from expression vector pBDS119) VHH: QVQLQESGGGSVQPGGSLRLSCTASGRTFNYAMGWFRQAPGKNREFVATIDWKDGSSYYLDSVRGRFTIERDDAKNTVYLQMNSLKPEDAAVYTCAVGDGDYCSTYTCAAEVEYDYWGQGTQVTVSS"
2,63,"BBB00515 (VHH, Lead VHH expressed in E. coli TG1 and purified by IMAC; detected with anti-FLAG antibody in flow cytometry; also called BBB00515 VHH; not shown: C-terminal 3xFlag/6xHis tag from expression vector pBDS119) VHH: QVQLQESGGGLVQAGGSLRLSCAASGSIFSINAMGWYRQAPGKQRELVAVITSGGSTIYADSVKGRFTISRDNAENTVYLQMNSLKPEDTAVYYCNAHVGLKVPTIQELSLGFGSWGQGTQVTVSS"
